Data on two molecules can be found in patent publication US20130034568A1 (UNIVERSITY OF LOUISVILLE RESEARCH FOUNDATION, published 2013).

Assay [1] concerns the target C5a receptor (C5aR; CD88), mouse, on peritoneal macrophages (mouse) (UniProt P30993). Description: cell-based or functional assay.
For assay [2], the target named is T1, CXC-chemokine receptor 4 (CXCR4), mouse, on peritoneal macrophages (mouse, UniProt P70658 1-359).
T1 construct: whole, on cells
The assay is described as follows: FRET, acceptor photobleaching, labelled antibodies on P. gingivalis-challenged mouse macrophages. How it is done: (§1) Upon stimulation for 10 min at 37° C. with P. gingivalis, mouse macrophages were labeled with a mixture of Cy3-conjugated (donor) and Cy5-conjugated (acceptor) antibodies, as indicated in FIG. 4I. In additional experiments shown in FIG. 4I, FITC-labeled P. gingivalis was used as donor and TRITC-labeled receptors served as acceptors. The cells were washed and fixed, and energy transfer between various donor-acceptor pairs was calculated from the increase in donor fluorescence after acceptor photobleaching (REF 9, 14). […] The conjugation of antibodies to Cy3 or Cy5 was performed using kits from Amersham Biosciences.

For assay [3], the target named is T2, TLR5, mouse, on peritoneal macrophages (mouse, UniProt Q9JLF7 27-859).
T2 construct: whole, on cells; Negative control in FRET; detected with antibody clone 85B152.5; also called Toll-like receptor 5
Description: FRET, acceptor photobleaching, labelled antibodies on P. gingivalis-stimulated mouse macrophages. How it is done:
as §1

T2 sequence (Q9JLF7 27-859): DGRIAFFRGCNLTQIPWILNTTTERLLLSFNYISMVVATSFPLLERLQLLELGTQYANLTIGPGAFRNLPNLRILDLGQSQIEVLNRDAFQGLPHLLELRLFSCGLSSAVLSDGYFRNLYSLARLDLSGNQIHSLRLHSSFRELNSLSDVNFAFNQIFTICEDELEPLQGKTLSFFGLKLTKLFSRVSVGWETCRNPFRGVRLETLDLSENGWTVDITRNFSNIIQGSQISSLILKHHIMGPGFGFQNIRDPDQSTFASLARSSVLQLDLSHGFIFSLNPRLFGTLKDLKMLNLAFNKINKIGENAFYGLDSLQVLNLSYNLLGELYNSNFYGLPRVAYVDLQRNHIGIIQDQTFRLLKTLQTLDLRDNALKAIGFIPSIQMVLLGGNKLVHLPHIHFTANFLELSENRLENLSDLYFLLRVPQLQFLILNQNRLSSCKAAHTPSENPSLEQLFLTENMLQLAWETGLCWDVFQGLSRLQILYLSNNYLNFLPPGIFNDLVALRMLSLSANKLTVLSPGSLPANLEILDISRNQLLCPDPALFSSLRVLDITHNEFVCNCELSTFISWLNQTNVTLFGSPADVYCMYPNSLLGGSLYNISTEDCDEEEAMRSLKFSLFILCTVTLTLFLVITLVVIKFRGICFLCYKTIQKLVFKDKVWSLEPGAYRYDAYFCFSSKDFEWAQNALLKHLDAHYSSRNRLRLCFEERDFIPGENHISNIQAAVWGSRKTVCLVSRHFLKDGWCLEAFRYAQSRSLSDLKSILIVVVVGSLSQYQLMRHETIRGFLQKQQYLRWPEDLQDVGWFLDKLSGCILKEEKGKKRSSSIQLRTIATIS
T1 sequence (P70658 whole entry): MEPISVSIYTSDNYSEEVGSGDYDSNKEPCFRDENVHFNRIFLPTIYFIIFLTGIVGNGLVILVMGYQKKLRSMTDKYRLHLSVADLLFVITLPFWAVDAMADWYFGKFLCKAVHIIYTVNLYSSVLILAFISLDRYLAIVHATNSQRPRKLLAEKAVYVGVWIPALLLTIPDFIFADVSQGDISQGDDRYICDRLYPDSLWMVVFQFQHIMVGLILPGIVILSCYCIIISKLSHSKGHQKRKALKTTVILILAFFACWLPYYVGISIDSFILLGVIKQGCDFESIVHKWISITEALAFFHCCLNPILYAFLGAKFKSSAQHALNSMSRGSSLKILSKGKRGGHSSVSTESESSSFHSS

The molecule “Mouse C5a (from UniProt P06684 679-755) (ligand)” came in with an intracellular cAMP in P. gingivalis-stimulated mouse macrophages in assay [1] of over 3 fold.

B1: C5a receptor (C5aR; CD88), mouse, on peritoneal macrophages (receptor, UniProt P30993 1-351, looked up)
chain: MDPIDNSSFEINYDHYGTMDPNIPADGIHLPKRQPGDVAALIIYSVVFLVGVPGNALVVWVTAFEARRAVNAIWFLNLAVADLLSCLALPVLFTTVLNHNYWYFDATACIVLPSLILLNMYASILLLATISADRFLLVFKPIWCQKVRGTGLAWMACGVAWVLALLLTIPSFVYREAYKDFYSEHTVCGINYGGGSFPKEKAVAILRLMVGFVLPLLTLNICYTFLLLRTWSRKATRSTKTLKVVMAVVICFFIFWLPYQVTGVMIAWLPPSSPTLKRVEKLNSLCVSLAYINCCVNPIIYVMAGQGFHGRLLRSLPSIIRNALSEDSVGRDSKTFTPSTTDTSTRKSQAV
notes: whole, on cells; In FRET it was detected with a dye-labelled mouse-specific monoclonal antibody (clone 20/70); also called complement C5a receptor
Take B1: the binding result is recorded as “binds” in assay [2] and “no binding” in assay [3].
